Measured values from the DeepSol protein solubility set.

Assay: soluble on expression in E. coli; label from the status in PepcDB or PDB records

| Sequence | soluble on expression in E. coli |
| --- | --- |
| MSLGPTRANPKAVKPFIEQKEKKMVLVVDWHTKTLAATMNGRRPQDEDAMVVHGPLKNFPNARLKAIFDGHGGYSVSRRCASVAYGYLGAMKNLSQESFRSACLQMDADMRADTLKGGSTGLMVIIEKVDDPESRDGIYFNVHAANVGDSRGLILHSDGTYTIMSKDHKPTAEVERERIKRAGGFLLRRLGVWRVDGRLALSRAFGDFALKDRLDMKPNEQKVVALPDVNVFKAKPGDIILMGCDELANTLKNIQWDGGTVCSRRPRGRRSRDNVSIMLTKLVKRPIRNTQVKRFDYSFTGERYVLPSEEGHHHHHH | not soluble |
| MGSDKIHHHHHHMIDFDSLTHDQQLGILQETAEAATANYDLPADVSVDMINLSENATYKIAARDGRRWALRIHRDGYHSRTAIQSELAWLTDLRQTGIVLTPVPVAGKDGEQIQRVGHARLAQPRHVVLSQWETGSEPGIGEALGEPFELLGEVTARMHIHARQWKRPSWFSRHVWDFETSLGEERPHWGRWRDGIGVDAAKARLFGRTAELIGRRLAAFGKGHDRFGLIHCDLRLANLLIDGKTVKVIDFDDCGFGWYMYDAATPISFYEHEPQAADLIRSWTTGYRRVLDLPKADEDEIPTFVMLRRLLLVAWIGSHAETDLAKSMGLPYTEGTVGLCEAYLSKF | not soluble |
| MGSDKIHHHHHHMQTIKLYIKDWLAIHPYIQQQATDRYFVDLANRLYSTCTIREIPESIKKKLCLYTAAYFEDVISGLGLWQAFIKKHLELYDTSLPFYTIRPDYIKDEINEEDIRFIIWNTLEKAPYKHPYINPMDRNIEETSHSFFRILDEEYETAPANDTLQDFFMDFKGKENANHKLRWLFGHTYLTEPSVQEYIAQVTETDKFIIPCGPLALFLHEWIDLLTNGETECWEEIEGLYPAIPEISDEMKERNHHTYQLFTQGTNGARIVYLEGYKELHRFLTQVLQWPDDSNHTLPQMKEHKDFIMMVNSEKGILLAKDICKYISDPLNPMYDAATAAQEAFSLLTIPTKCPPDLMEYVINNHYIPDAQFPEFGERELVQKNADFIARNSLLYYYRGD | not soluble |
| MSYYHHHHHHLESTSLYKKAGFMADQLTPHLEIPTAIKPRDGRFGSGPSKVRLEQLQTLTTTAAALFGTSHRQAPVKNLVGRVRSGLAELFSLPDGYEVILGNGGATAFWDAAAFGLIDKRSLHLTYGEFSAKFASAVSKNPFVGEPIIITSDPGSAPEPQTDPSVDVIAWAHNETSTGVAVAVRRPEGSDDALVVIDATSGAGGLPVDIAETDAYYFAPQKNFASDGGLWLAIMSPAALSRIEAIAATGRWVPDFLSLPIAVENSLKNQTYNTPAIATLALLAEQIDWLVGNGGLDWAVKRTADSSQRLYSWAQERPYTTPFVTDPGLRSQVVGTIDFVDDVDAGTVAKILRANGIVDTEPYRKLGRNQLRVAMFPAVEPDDVSALTECVDWVVERL | soluble |
| MGHHHHHHSHMKYGNPNYGGMKGILSNSWKRRYHSRRIQRDVIKKRALIGDDVGLTSYKHRHSGLVNVPEEPIEEEEEEEEEEEEEEEEDQDMDADDRVVVEYHEELPALKQPRERSASRRSSASSSDSDEMDYDLELKMISTPSPKKSMKMTMYADEVESQLKNIRNSMRADSVSSSNIKNRIGNKLPPEKFADVRHLLDEKRQHSRPRPPVSSTKSDIRQRLGKRPHSPEKAFSSNPVVRREPSSDVHSRLGVPRQDSKGLYADTREKKSGNLWTRLGSAPKTKEKNTKKVDHRAPGAEEDDSELQRAWGALIKEKEQSRQKKSRLDNLPSLQIEVSRESSSGSEAES | not soluble |
| MGSDKIHHHHHHMVDTNHKIAFCIDSDGCAMDTMTYKHQLFFGPIAADIFGISEQERTSFLKEWDRVNLYSRTRGVNRFVGLVMGLEFAGVEHIDKLKEWVETTDSLSNNSLELALANDFSRDLEKALEWSNEVNRQIKNYEGDSLAFSGVLESLERLSQFGNVYVVSSANKEAVWQEWEEQGLLKYVDDIYCQDRGKKEDVIATLIASGYCRETILMVGDSLGDLAAAEQNGIAFYPVLVGKEVKSWEILREDIGEAFAKGQFEQQRQKESINTFWANLDN | not soluble |
| MSLSNDGRRQIIESAGRSMAEGYAETLRAIDPTLAINLFSPADEADRLPAPLSSYDGVVVTGSSLHVYRTEPAVTRQIDFLREVFDAGVPVFGSCWGLQLGVVAAGGTVIPNPKRREVPFARSVTLTAAGKTHQMHQSRPAAFDALAIHLDVVSVLPPDSVVTAFNDMAAVQAVEFRSGRSLFWGVQYHPEFELPYMASILRRNASSLVAEAAFSSEGELVEMVDAMDSHGNDGDRVRHPSLLPDDVLDRHTRTIEIANWLKMLSSGEGHHHHHH | not soluble |
| MSLTPLMVNGILGESVTLPLEFPAGEKVNFITWLFNETSLAFIVPHETKSPEIHVTNPKQGKRLNFTQSYSLQLSNLKMEDTGSYRAQISTKTSAKLSSYTLRILRQLRNIQVTNHSQLFQNMTCELHLTCSVEDADDNVSFRWEALGNTLSSQPNLTVSWDPRISSEQDYTCIAENAVSNLSFSVSAQKLCE | soluble |
| MSLRHMQIETVNLPLARPMAAENGTRHAVTVIRVALEEKGFIGQGECTPAAHYGESADSVCRQLSAIREAIENGLTIEQLQQNLSPGAARNALDCALWRLNTALEKQTLWQRVGIHPPTSVVCAQTLALDSVEKMATAASNAVSHGALLLKIKLDRELILEKVAAIRAAAPNARLIIDARASWSGLDLHSLSTALLPYQVAMIEQPLPVGKDEDLQRFAHPIPICADESCRHSGDIVGLRRRYDMINIKLDKCGGLTEALAMVREAHFHGLRIMVGCTLGSSMAMEAALPVAADAEHVDLDGPIWLAADSSPYLTYNLGRIWLEGHHHHHH | soluble |
| MSLENDSLEITYLGKRYKISLNNTFSDEMKRTLKERFHNQELNALELLKDYLHESCQNEYLHNELQKLLEKISSCSIT | not soluble |
| AHHHHHHGSGVEKVPKYDIPVKKVEYVFIELDKMKPHEQLVQRELEDFIESVTGSGIFWKPMLLAKIPGTDEYLIVDGHHRWAGLQKLGAKRAPSVILDYFDEGVKVYTWYPAFKGDVNKVIERLKAEGLEVIEDEKAEEKAEKGEIAFALIGEKSFAIPGGLEEQKKVSKVLDEMDQAKEIELVYYGLKEDAKADMEKGEIDYVFIRKAPTKEEVMELVKRGEVFSPKTTRHVLPFIPDKIDVKLEDLF | soluble |
| MNIIDELEWRGAVNQQTDEEGLRKLVEEKKISLYCGVDPTGDSMHIGHLIPFMMMKRFQLAGHHPVILIGGATGTIGDPSGRQSERQLQTLEVVQHNVDALTAQMKKLFDFGGNSEVKMVNNYDWTHEINIIEFLRDYGKNFSINSMLAKDIVASRLDTGISFTEFTYQILQAMDFHHLYTKEDVQLQIGGSDQWGNITSGLDLIRKLEGHEAKVFGLTIPLLLKSDGTKFGKSAGGAVWLDPEKTTPFEFYQFWVNTDDRDVVKYLKYFTFLTKERIDELAVKVETEPHKREAQKVLAEEMTKFVHGEEALLQAVKITAALFSGDIKSLTADEIEQGFKEMPTFQSSKETKNIVEWLVDLGIEPSRRQAREDINNGAISMNGEKVTDVGTDVTVENSFDGRFIIIRKGKKNYSLVKLG | soluble |
| MAQKVEAGGGAGGASWDDGVHDGVRKVHVGQGQDGVSSINVVYAKDSQDVEGGEHGKKTLLGFETFEVDADDYIVAVQVTYDNVFGQDSDIITSITFNTFKGKTSPPYGLETQKKFVLKDKNGGKLVGFHGRAGEALYALGAYFATTTTPVTPAKKLSAIGGDEGTAWDDGAYDGVKKVYVGQGQDGISAVKFEYNKGAENIVGGEHGKPTLLGFEEFEIDYPSEYITAVEGTYDKIFGSDGLIITMLRFKTNKQTSAPFGLEAGTAFELKEEGHKIVGFHGKASELLHQFGVHVMPLTN | soluble |
| MSLGTNKDYIEYVHKVYDYLHTIPEKGFEEYKTSEFVLKELEKMGFENINKGVAGTGIIVTIDSKKEGPVFAIRADMDALEFIIDGEKKMIHACGHDGHTSMLLTAAKLIKERNLVKRGKLKILFQPGEEKLYGALRVIDSGLLDDVEEMVGMHLRPGQDCRLGKAIPAMYHCASCIMEFTIKGITCHGSKPHLGVNAVDAVCLAVNAINAIRVNPAIPNSIKVTNISVKGETYNNIPDEAFMALDIRAESNDIIEELKEKAIHAAKTAVSSINAEAVLISKDGVPAAEFDEELVNLAEETIKDVLGADASIGIFKNSGGEDFHYYTQKLKCKTTYIGLGADATPGFHNPNVTFDTKALEYGVDIWCRLVEKRLGEGHHHHHH | soluble |
| MSLPKEEILTGPAVIKIVSTYMGPEHVELVQKALTYAEKAHEGQVRQSGEPYIIHPIQVAGILAELHMDPHTVATGFLHDVVEDTDVTLDDLKEEFGEDIAMLVDGVTKLGKIKYKSHEEQLAENHRKMLLAMAQDLRVIMVKLADRLHNMRTLKHLREDKQRRIAQETLEIYAPLAHRLGISRIKWELEDTALRYINPNQYYRIVNLMQSKRDEREAYVAEAVEDIRLATEDLEIYAEIYGRPKHIYSIYRKMKDQKKQFNEIYDLLAIRVIVDSIKDCYAVLGAIHTRWTPMPGRFKDYIAMPKANMYQSIHTTVIGPKGNPVEVQIRTHEMHQIAEFGVAAHWAYKEGKAEKIETDELTKQVDWFHEIIELQDESYDASEFMQGVKEDIFSDKVYVFTPSGDVTELPKGSGPLDFAYSIHTEIGNKTTGAKVNGKMVQLDYVLKNGDIIEVLTSPNSFGPSRDWLKMVKTSKAKNKIKRFFKEQDREDNIIKGHDAVIKYMTEIGFTPKEFLTKNKMAEVLDKFKFQTEDDLFAAVGYGEVSAQVVCNRLTEKERREQELERQRQEAEELLNQPAKKESEKMKVRHEGGIVIQGVDNLLIRLSRCCNPVPGDEIVGYITKGRGVSIHRADCPNVQHQEELAQRLIEVEWEDTEHSRKEYAADLEIYGYDRSGLLSDVLQVISSMTKNLVGVEARPSKDKMAQIHVTVKIQNLSHLKTIVDKIKSVPDVYSVRRTNGEGHHHHHH | soluble |
| MNVTVAPQDETLSARAGRVATIAAKHADDVDVTGRFPQEAVDALRRERLLGIQVPSSLGGEGASIQEIADICARLGQACSATAMIFAMHHIKLSSLVEHGVDSTWHPGFMRRVAGEQLLLGSATTEGGIGGNLRNSICAIEVEGDSCRLEKDATVISYGSNADAILITSRAHKDAAPADQVMTVFLKNQYTLEKTHVWDTLGMRGTCSDGFLFRGEAPAAQIFPKPFAEIAAQSMLASSHLLWSAVWYGIASDAVLRAQSFVRAAARKSPGTAPPGAIRLAEVSTKLQVVKSNIIAGIKAYEDTKSDPEKLMSMAFAVAMNNVKICSSETILEIIDHAMLVCGIMGYKNGTPYSLGRHLRDAHSARLMISNDRILGNSANLLLVHRQDTSLLG | soluble |
| MSLQESSFVHLHNHTQFSVLQSTMAVPDLVAAAAKHNMPAVAITDHANMMGAFHFVNAVKKHNSAIANDSENTSQPIKPIIGCEFFVCEDHTDRTHKDNGYQMVILAKNKKGYHNLAKMSSMGFTKGFYYIPRIDKKLIETYKDDLIVLSGSLYGEIASKLLNLGENQAEESLVWWKETFGDDFYVEIMRHQQEDEERANEALIRLANKHDINLVATNNTYYADQKDANAHDILLCVKEGEKQATPIGRGRGYRYGLPNDQYYFKSAEEMKSLFKDLPQAISNTEAIANKVEAFELAREVLLPAFVIPEQFLDEADKTDAGKRGENAYLKHLTFEGAKRRYGELSEEIKDRLDFELSVIANTGYPGYFLIVEDFIREARKMGVSVGPGRGSAAGSAVAYCLKITNIDPIKYDLLFERFLNPERVSMPDIDIDFDDEGRSKVMDYVIEKYGQNQVAQIITYGTMAAKSAIRDTARVLDLPLYEADRIAKLIPDMSKLGKIFSMNEKEEGHHHHHH | soluble |
| MSTPRQILAAIFDMDGLLIDSEPLWDRAELDVMASLGVDISRRNELPDTLGLRIDMVVDLWYARQPWNGPSRQEVVERVIARAISLVEETRPLLPGVREAVALCKEQGLLVGLASASPLHMLEKVLTMFDLRDSFDALASAEKLPYSKPHPQVYLDCAAKLGVDPLTCVALEDSVNGMIASKAARMRSIVVPAPEAQNDPRFVLSNVKLSSLTELTAKDLLG | soluble |
